Measured values: the supplement of paper PMC9170038

Tested on: MS2 coat protein
Assay: apparent KD of MS2 coat protein; higher = weaker reporter binding
Details: Eterna round: R107
Procedure: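 RNA-MaP round R107: designed RNA switches with theophylline, tryptophan, arginine or FMN aptamers are transcribed on-chip within common flanks. They are titrated with SNAP-549-labelled MS2 coat protein in RNA-MaP buffer (100 mM Tris pH 7.5, 80 mM KCl, 4 mM MgCl2), without ligand or with the indicated ligand. Median apparent KD per design.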

[1] = input ligand: theophylline 20 uM
[2] = input ligand: theophylline 2 mM
[3] = input ligand: tryptophan 2.4 mM

Row | Sequence | apparent KD of MS2 coat protein (input ligand: arginine 13.2 mM) [nM] | apparent KD of MS2 coat protein [1] [nM] | apparent KD of MS2 coat protein [2] [nM] | apparent KD of MS2 coat protein (input ligand: none) [nM] | apparent KD of MS2 coat protein [3] [nM]
1 | UAAUGCAGGUCGGCCGCCACUACAAACAUGAGGAUCACCCAUGUAGUUACUGGGUGAAGUGGCAGUAGGACCGGGACCUGCAUAA [Trp-Ms2-T'-M'-T''_Design1] | 102 | 602 | 1040 | – | –
2 | UAUCCACAUGAGGAUCACCCAUGUAGGGAAGGAGCGGUGAUUUCACCAGGUAGGUCGCCUUGCUGAGGGUUGCCGGUGGAAUCGU [Exclusion - Arginine A (Freestyle 33)] | 12.5 | 14.8 | 13.1 | 15.7 | 16.2
3 | GGGUCAGGCGCGGCCGCCACUGCGGUGAUGUGACAUGAGGAUCACCCAUGUUGUCAUGUGGCACAUAGGACCGGGCGCCUGGCCC [#1 Exclusion - Tryptophan B Attempt #7 (HarryS)] | 25.4 | 41.5 | 33.2 | – | –
4 | UGGCAGUACAUGGGUUACUGCCAAGGUGAUACCAGCAUCGAAAGAUGCCCUUGGCAGCACCAACAUGAGGAUCACCCAUGUAAUA [(MT)''-(M)'-(T')-(Theo)-(Ms2)_Design1/22_8] | 68.5 | 210 | 53.9 | 234 | 247
5 | GGACUAACCAGAAGGAGCGACACGCAGAAACUGCAAAUUCCUCCACACGAGGAUCACCCGUGUCAGGUAGGUCGCUGGUUAGUCG | 27.8 | 31.1 | 28.4 | 24 | 22.2
6 | AGCGACAUGCGUGAUACCAGCUACAUGAGGAUCACCCAUGUACGUCAGAAAUGACUGUGUAGCCCUUGGCAGCAUAGUGCAUGUC [Exclusion - Theophylline B (Freestyle 20)] | 34.6 | 54.2 | – | – | 34.8
7 | GGGUACAUCGCGGCCGCCACUCAUGUAAAUGCAUGAGGAUCACCCAUGCCGAUGGAGACAUCGGAGAGGACCGGGUGAUGUACCG | 41.8 | 68.7 | 71.1 | 45.8 | 33.6
8 | AAGGUAUCACAGAGGUGAUUCAACUGUGAUACCAGCUAGGAAACUAGCCCUUGGCAGCACAUGAGGAUCACCCAUGUAAGAAUAA [(T)'-(M)'-(T1)-(T2)-(M1)-(M2)_Design3_2/19/17] | 36.3 | 33.6 | 128 | 36.5 | 37.1
9 | CUUACACAUGAGGAUCACCCAUGUCAUGAUACCAGCCAAUACACUGGCCCUUGGCAGCAUCUCAGCCUCAGCUACAUUGACUGAC [theeternabot_sameState_MS2_Theo_A_2] | 18.9 | 28.2 | – | – | 17.8
10 | AUUGUCAAGUCGGCCGCCACUUCUGCCAUGGCCACCAGUCGACAUGAGGAUCACCCAUGUCUCUUAAGGACCGGGACUUUCAAUU [theeternabot_sameState_MS2_Trp_B_6] | 13.1 | 16 | 13.9 | – | –
11 | CUAGACUGUGCGGCCGCCACUGGCUCAUCCUGCAUUACAUGAGGAUCACCCAUGUUGCGGCCUCCCAGGACCGGGCAUAGUCUGC [Riinzaa] | 91 | 474 | 734 | – | –
12 | CACUACAUGAGGAUCACCCAUGUCUUCCGACGAGGACCGGUACGGCCGCCACUCGAACCUCCAACUAAUACCUCAACCGUCUGAU [theeternabot_sameState_MS2_Trp_A_25] | 36.5 | 110 | 101 | – | –
13 | UAUCGUCAGACGGCCGCCACUAGAACAUGAGGAUCACCCAUGUAGGCGGCCGAUUCCUCAUGAACUAGGACCGGGUCUGACGAAU [(Trp1)-(Ms2)-(T)'-(M)'-(Trp2)_Design12] | 8.18 | 26 | 8.89 | 6.6 | 13.3
14 | UGUAUGGACUGAAGGAGCGGAAGAUACCAUGAGGAUCACCCAUGGAAUAAGGCGAAAGCCUUCCAGGUAGGUCGCAGUCCAUACU | 16.1 | 23.9 | 23.9 | 18.3 | 19.8
15 | GGUCUCUGGAGCGAUACCAGCUUGAGUGUACUGGCCAGGUACAUGAGGAUCACCCAUGUAAGCCCUUGGCAGCGCUCCAGAGACC [#1 Exclusion - Theophylline B Attempt #15 (HarryS)] | 9.19 | 14 | 44.7 | 9.21 | 11
16 | AAGAGACAUGAGGAUCACCCAUGUGUUGAUACCAGAAACACAAAGUUCCCUUGGCAGCAAAUCUGAGCGAAACGAUCUAGAGCGC [theeternabot_sameState_MS2_Theo_A_30] | 43.3 | 84.9 | – | – | 70.6
17 | ACGCUGAUUGAUUACAAUCAGCGAAAAGAUACCAGUGGGUAAUCCCACCCUUGGCAGCUUAAACAUGAGGAUCACCCAUGUGGUA [TheoAS 14 #MS2Right #BothOrNeither #AlternativeMS2] | 79.9 | 146 | – | – | 126
18 | ACCUGUACGAAAAGUGCAGGACACGGAAUACGAGGACCGGUACGGCCGCCACUCGGAAUAACCUGAGGAUCACCCUGGUACCGUG [TrypAS 10 #AlternativeMS2 #Zipper #StaticStem] | 25.8 | 27.5 | 26.7 | 18.8 | 19.2

Row | Sequence | apparent KD of MS2 coat protein (input ligand: arginine 13.2 mM) [nM] | apparent KD of MS2 coat protein [1] [nM] | apparent KD of MS2 coat protein [2] [nM] | apparent KD of MS2 coat protein (input ligand: none) [nM] | apparent KD of MS2 coat protein [3] [nM]
19 | AGCCACUCGAACAUGGGUGACGAGUGGCAACGAGGACCGGUACGGCCGCCACUCGAAUAAACAUGAGGAUCACCCAUGUACAAAU [T''-M'-T'-T-MS2 - Design 9] | 33.1 | 146 | 355 | – | –
20 | UUGGCACGGACGGCCGCCACUCUUUCACAUGAGGAUCACCCAUGUUAUCUAGUCCUCAGCAGAAAGAGGACCGGGUCGGAGUUGG [theeternabot_exclusion_MS2_Trp_B_13] | 75.1 | 168 | 214 | – | –
21 | AGACCCUUCACGGCCGCCACUCAUUUUAAGUAGAGAGAGUACAUGAGGAUCACCCAUGUGAGAGAGAGGACCGGGUGAGAUAUUA [ss-trypB-0] | 13.9 | 21.4 | 21.3 | – | –
22 | AUUACAUGGAUUACAACUAAAUCAACUGAAGGAGCGUGAAGGAUCACAGGUAGGUCGCAGUACAUGAGGAUCACCCAUGUUAUAA [JR_Nu_SSArginiA_Sub021] | 34.4 | 48.5 | 45.9 | 34 | 39.6
23 | AAUAACAUGAGGAUCACCCAUGUAAAAGAUACCAGAGUGAUGAUCCUCCCUUGGCAGCUUAAUAACGCUAUCGGAAACGAUAGCG [Mat - Same State Theophlline A - Mod of Eli - D8] | 37.7 | 170 | – | – | 72
24 | ACAUGAGGAUCACCCAUGUAGCCUAGGGAAGGAGCGGCAUAAAAGCCAGGUAGGUCGCCCGCAUGAGGAUCACCCAUGUCAAGGA [Same State Arginine A GF7] | 42.8 | 81.7 | 74.9 | 70 | 61
25 | UGUUUGGUGCGCGAGUGUUGGAUAAUUGAUACCAGUGUAGAAGAGCGCCCUUGGCAGCGAAUCCUAACAUGAGGAUCACCCAUGU [5.W] | 37.6 | 54.7 | – | – | 40.3
26 | GUACAUGAGGAUCACCCAUGUAUAGUUGAAGGAGCGACCGGUGGGUCAGGUAGGUCGCAGCGCAUGGCGUCAACCCGUGUAUGCC [#1 Exclusion - Arginine A Attempt #27 (Inspired by Pi)] | 13.8 | 24.8 | 21 | 17.2 | 17.9
27 | CAGAGACAUGAGGAUCACCCAUGUUGAGAUACCAGCUUGGUAUCGAGCCCUUGGCAGCUCGCCCAUCGUCUAUAUCAGCCUGAGC [theeternabot_sameState_MS2_Theo_A_40] | 17 | 18.9 | – | – | 16.8
28 | AAAUGAAGGCGAAGGAGCGGGAACAUGAGGAUCACCCAUGUGUAUGUAUGUAGUCAUGUAUCUCAGGUAGGUCGCGCUGUUACAU [Exclusion Arginine B 2] | 80 | 178 | 207 | 185 | 106
29 | UGAUACCAGUCGGCCGCCACUAUGCUAGAUACUAGCAAUAAAUGGGAACAUGAGGAUCACCCAUGUAGGACCGGGACUGGUAUCU | 32.1 | 42.9 | 42.7 | 33.6 | 64
30 | GUUGGUUUGCGAAGGAGCGGGUAUGUUGUCUACUUGAUCCUAACAUGAGGAUCACCCAUGUCCCAGGUAGGUCGCGCGGGCUUUG [12.aC] | 37 | 63.9 | 81 | 45.1 | 46.8
31 | AAUCUGUCGGGUGAUACCAGCCUCGGCACAUCUCGUGCCGAACAUGAGGAUCACCCAUGUGGCCCUUGGCAGCACAUGACAAAUC [Usreerso] | 289 | 801 | – | – | 520
32 | CCGGGCCCGGGAGACCGGGCCCGGACUGAAGGAGCGGGAAUAAACCCAGGUAGGUCGCAGAGAUCCACAUGAGGAUCACCCAUGU [!0.U] | 133 | 51.7 | 36.5 | 54.5 | 36.8
33 | CCUAUGCAGUCGGCCGCCACUGUACAUGAGGAUCACCCAUGUUCCAAAAUAAAAGGAACUGAAAUCAGGACCGGGACUGUAUAGG [Ex Tryptophan B 1] | 29.4 | 37.2 | 39 | 33.3 | 32.6
34 | AAUAAGAGCUCGGAUACCAGCGAAAACAGGCACAUGAGGAUCACCCAUGUUAACGCACUGCGCCCUUGGCAGCCGCACGUGUGUC [theeternabot_sameState_MS2_Theo_B_39] | 19.6 | 25.4 | – | – | 22
35 | AGACAUGUAAGAUAAAUGACUUAUACAGAUACCAGACUGUCUAAUGUCCCUUGGCAGCUGCAUAACAUGAGGAUCACCCAUGUAA [JR_ExcTheophyA_Sub010] | 22.3 | 24.2 | – | – | 26.9
36 | AAACGAGAGACAGAUACCAGCGCAGGAACGGAGUAUGGUGACAUGAGGAUCACCCAUGUGCGCCCUUGGCAGCUGAGCCGUAUUG [theeternabot_exclusion_MS2_Theo_B_37] | 30 | 43.3 | – | – | 33.5
